# From patent US7205387B2, “Recombinant polypeptide useful for neurotrophin receptor mediated gene delivery and as neurotrophin agonist” (Agency for Science, Technology and Research, priority 2003, dated 2007)
# B1: DsbC-NL4-10K: chimeric recombinant protein: NL4-10K attached to the C-terminus of DsbC, an E. coli disulfide bond isomerase (protein)
# chain: MKKGFMLFTLLAAFSGFAQADDAAIQQTLAKMGIKSSDIQPAPVAGMKTVLTNSGVLYITDDGKHIIQGPMYDVSGTAPVNVTNKMLLKQLNALEKEMIVYKAPQEKHVITVFTDITCGYCHKLHEQMADYNALGITVRYLAFPRQGLDSDAEKEMKAIWCAKDKNKAFDDVMAGKSVAPASCDVDIADHYALGVQLGVSGTPAVVLSNGTLVPGYQPPKEMKEFLDEHQKMTSGKGSTSGSGHHHHHHSAGLVPRGSCTTTHTFVKALTMDGKQAAWRFIRIDTACKKKKKKKKKK
# modifications: DsbC-NL4-10K
# notes: chimeric recombinant protein: NL4-10K attached to the C-terminus of DsbC, an E. coli disulfide bond isomerase
# Assays:
# plasmid DNA = assay: DNA retardation assay (agarose gel electrophoresis); assay type: binding
# Protocol: This assay qualitatively assesses the ability of a polypeptide or polycation to bind to DNA and thus to retard its migration (by decreasing its charge/mass ratio) through an agarose gel under electrophoresis. For a range of N/P ratios, polypeptide was added to 0.1 μg of plasmid DNA made up to 20 μl with either HEPES-buffered saline (HBS, 150 mM NaCl, 29 mM HEPES, pH 7.3) or 5% glucose. The mixtures were vortexed and incubated at room temperature for 30 minutes before being subjected to electrophoresis in a 0.8–1.0% Tris-borate-EDTA agarose gel stained with ethidium bromide for visualization under ultraviolet light.
# [1] = test system: PC12 (TrkA and p75^NTR positive) cells; assay: Gene delivery in vitro (pCAGluc luciferase reporter), PC12 cells; assay type: cell-based, rat
# Protocol: (§1) A PC12 (rat pheochromocytoma) cell line was obtained from ATCC (American Type Culture Collection, Manassas, Va., USA) and cultured in RPMI-1640 medium supplemented with 10% fetal bovine serum (FBS) and 5% horse serum. PC12 cells are known to express TrkA and p75^NTR receptors. A COS7 (African green monkey kidney fibroblast) cell line was obtained from ATCC and cultured in Dulbecco's modified Eagle's medium (DMEM) supplemented with 10% fetal bovine serum, 50 U/ml penicillin, and 50 μg/ml streptomycin. The cells were maintained in a 37° C., 5% CO2, humidified incubator.
# (§2) To determine the transfection efficiencies of our nucleic acid delivery systems, we employ a reporter plasmid, pCAGluc (a gift from Yoshiharu Matsuura, National Institute of Infectious Diseases, Tokyo, Japan), encoding firefly luciferase under the control of the composite promoter, CAG. CAG comprises the chicken β-actin promoter and the cytomegalovirus immediate early enhancer.
# TrkA-targeting gene delivery complexes were tested for transfection efficiency in vitro in PC12 (TrkA and p75^NTR positive) cells and COS7 (neurotrophin receptor negative) cells. The cells were grown to 50–70% confluency in microplate wells (24-, 48-, or 96-well plates). The gene delivery complexes were prepared according to specifications presented for each example. Transfection was accomplished by replacing the serum-enriched medium with half the usual volume of reduced-serum medium, Opti-MEM (Invitrogen), containing the gene delivery complexes. Where specifically mentioned, 100 μM of chloroquine was also added to help the complexes escape from endosomes. After four hours of incubation, the cells were restored to the normal medium volume and serum concentration, either by topping up with medium containing twice the usual serum concentration (RPMI-1640 with 20% FBS and 10% horse serum for PC12) or by completely replacing the medium.
# One to two days after transfection, the cell culture medium was removed and the cells were rinsed in phosphate-buffered saline (PBS). Enough Reporter Lysis Buffer (Promega, Wisconsin, Md., USA) to cover the bottom surface was added to each well (50 μl/well for 48-well plates). After one freeze-thaw cycle, the lysates were tested for luciferase activity using the Luciferase Assay System (Promega) and a single-tube luminometer (Berthold Lumat L B 9507, Bad Wildbad, Germany). The total protein concentration of each lysate was determined using the DC Protein assay (Bio-Rad, Hercules, Calif., USA). The results were expressed in relative light units (RLU) per milligram of total protein.
# [2] = test system: COS7 (neurotrophin receptor negative) cells; assay: Gene delivery in vitro (pCAGluc luciferase reporter), COS7 cells; assay type: cell-based, African green monkey; settings: triple complexes with protamine, 0.1 μg pCAGluc/well
# Protocol: as §1, §2
# TrkA-targeting gene delivery complexes were tested for transfection efficiency in vitro in PC12 (TrkA and p75^NTR positive) cells and COS7 (neurotrophin receptor negative) cells. […]
# One to two days after transfection, the cell culture medium was removed and the cells were rinsed in phosphate-buffered saline (PBS). […] The total protein concentration of each lysate was determined using the DC Protein assay (Bio-Rad, Hercules, Calif., USA). […]
# [3] = triple complexes with protamine (2 μg per μg DNA), 0.1 μg pCAGluc/well
molecule,measurement,setting,value
B1,DNA binding / retardation of DNA migration (in words),plasmid DNA,binds to DNA but cannot fully condense it
same,effect of pre-treatment with free protein on DsbC-NL4-10K/DNA/PEI600 transfection,"[1]; 30 minutes before transfection, compared to bovine serum albumin pre-treatment",greatly reduced the transfection efficiency
same,N/P ratio of maximum transfection efficiency,[1]; [3],1 N/P ratio
same,protein/DNA ratio of maximum transfection efficiency,[1]; [3],0.3 nmol/µg
same,effect on protamine-mediated gene delivery,[2],did not improve gene delivery
